These substances were tested against Nkx6.1ΔTN (Nkx6.1 with the TN domain deleted, Δaa 90-113) (rat) (UniProt O35762) (assay: immuno-precipitation, 35S-labelled Grg4, Nkx protein on antibody-proteinA-sepharose).
Sequence of Nkx6.1ΔTN (Nkx6.1 with the TN domain deleted, Δaa 90-113) (rat) (O35762 other isoform, or with tags, fused parts or gaps mutant): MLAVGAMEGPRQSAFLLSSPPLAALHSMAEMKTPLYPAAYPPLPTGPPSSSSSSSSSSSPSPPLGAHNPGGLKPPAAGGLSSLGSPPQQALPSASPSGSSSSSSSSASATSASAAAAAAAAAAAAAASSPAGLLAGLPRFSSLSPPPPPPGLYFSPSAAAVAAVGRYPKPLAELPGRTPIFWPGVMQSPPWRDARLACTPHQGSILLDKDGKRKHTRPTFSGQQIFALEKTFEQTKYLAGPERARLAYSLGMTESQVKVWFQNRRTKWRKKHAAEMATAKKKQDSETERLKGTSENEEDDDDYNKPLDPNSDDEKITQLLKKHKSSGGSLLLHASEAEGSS

Sequence of mouse Grg4 (Q62441 whole entry): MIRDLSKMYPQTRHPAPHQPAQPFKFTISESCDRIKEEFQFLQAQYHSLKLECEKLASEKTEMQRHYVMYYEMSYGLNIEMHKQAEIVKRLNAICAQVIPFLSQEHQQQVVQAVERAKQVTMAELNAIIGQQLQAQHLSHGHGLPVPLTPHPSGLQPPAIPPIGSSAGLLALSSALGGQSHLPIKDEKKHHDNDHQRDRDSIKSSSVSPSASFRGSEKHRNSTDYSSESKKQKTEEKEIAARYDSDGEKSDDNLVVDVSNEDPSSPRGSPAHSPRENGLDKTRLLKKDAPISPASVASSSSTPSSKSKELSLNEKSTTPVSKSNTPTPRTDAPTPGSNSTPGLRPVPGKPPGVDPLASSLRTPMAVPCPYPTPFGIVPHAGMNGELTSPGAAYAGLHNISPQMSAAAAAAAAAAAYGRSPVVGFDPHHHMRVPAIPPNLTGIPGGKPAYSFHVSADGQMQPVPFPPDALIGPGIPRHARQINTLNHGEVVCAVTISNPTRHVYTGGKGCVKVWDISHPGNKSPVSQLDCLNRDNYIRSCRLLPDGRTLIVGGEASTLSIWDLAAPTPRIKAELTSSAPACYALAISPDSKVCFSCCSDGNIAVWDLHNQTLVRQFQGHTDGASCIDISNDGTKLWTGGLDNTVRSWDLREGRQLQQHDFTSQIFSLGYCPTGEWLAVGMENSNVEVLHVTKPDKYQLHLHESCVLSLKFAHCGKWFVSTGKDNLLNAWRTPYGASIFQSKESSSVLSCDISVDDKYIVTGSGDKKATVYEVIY

Row | fold reduction of the interaction with Grg4 compared to the full-length protein [fold] | Substance
1 | 5 | mouse Grg4 (from UniProt Q62441 1-773)

What follows are substances tested against mouse Grg4 (mouse) (UniProt Q62441) (assay: cell-based or functional assay).
Sequence of mouse Grg4 (mouse) (Q62441 whole entry): as above

Row | Substance | repressor activity in the UAS-luciferase reporter assay in COS-7 cells, with increasing amounts of co-transfected Grg4 [fold]
2 | Gal-Nkx2.2 (full-length Nkx2.2 fused to the DNA binding domain of yeast Gal4) (from UniProt P04386 1-147) | < 10
3 | Gal-Nkx6.1 (full-length Nkx6.1 fused to the DNA binding domain of yeast Gal4) (from UniProt P04386 1-147; O35762 1-365) | < 10
4 | Gal-Nkx6.1ΔTN (Nkx6.1 lacking aa 90-113 fused to the DNA binding domain of yeast Gal4) (from UniProt P04386 1-147; O35762 1-89; O35762 114-365) | 2
5 | Gal-Nkx6.2ΔTN (Nkx6.2 lacking aa 2-73 fused to the DNA binding domain of yeast Gal4) (from UniProt P04386 1-147) | 2

Continued, values first:

Row | repressor activity in the UAS-luciferase reporter assay in COS-7 cells, with increasing amounts of co-transfected Grg4 [fold] | Substance
6 | < 10 | Gal-Nkx2.9 (full-length Nkx2.9 fused to the DNA binding domain of yeast Gal4) (from UniProt P04386 1-147; O70584 1-235)
7 | < 10 | Gal-Nkx6.2 (full-length Nkx6.2 fused to the DNA binding domain of yeast Gal4) (from UniProt P04386 1-147; P43688 1-289)
